Source: patent publication US20140087995A1 (published 2014)
Numbered stars: 1 amine (or outer) side, 2 acyl side, 3 side chain; on linkers, the order of the positions; unused ones are H or OH. Bridge positions count the residues as written; N and C are the ends. Side chains are listed from the residue outwards. Ends that are not written are not given here. * marks the point of attachment. C20 diacid = O=C(O)CCCCCCCCCCCCCCCCCCC(=O)*; γGlu = O=C(O)[C@H](CCC(=O)[*:2])N[*:1]; AEEA = NCCOCCOCC(=O)O

T1: human amylin receptor (human, UniProt P30988 25-474; O60896 24-148, limits assumed)
T1 construct: whole, on cells; Calcitonin receptor plus RAMP-3 gives the amylin 3(a) receptor; membranes of Amylin 3(a)/CRE-luc cells were used; also called hAmylin-R; hAmylinR
T1 sequence (looked up) 1: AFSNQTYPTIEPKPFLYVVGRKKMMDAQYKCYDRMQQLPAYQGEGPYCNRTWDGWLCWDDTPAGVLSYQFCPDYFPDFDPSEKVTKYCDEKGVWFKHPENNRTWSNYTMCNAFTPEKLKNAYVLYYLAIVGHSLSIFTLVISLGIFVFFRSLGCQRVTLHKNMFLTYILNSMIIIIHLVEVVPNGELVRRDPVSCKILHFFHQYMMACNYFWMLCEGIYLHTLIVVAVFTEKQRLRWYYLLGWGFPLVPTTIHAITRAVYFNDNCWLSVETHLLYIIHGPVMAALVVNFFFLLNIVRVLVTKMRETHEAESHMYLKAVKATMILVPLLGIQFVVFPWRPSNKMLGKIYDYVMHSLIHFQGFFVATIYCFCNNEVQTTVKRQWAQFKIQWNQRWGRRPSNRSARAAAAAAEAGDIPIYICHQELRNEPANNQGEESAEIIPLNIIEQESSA
T1 sequence (looked up) 2: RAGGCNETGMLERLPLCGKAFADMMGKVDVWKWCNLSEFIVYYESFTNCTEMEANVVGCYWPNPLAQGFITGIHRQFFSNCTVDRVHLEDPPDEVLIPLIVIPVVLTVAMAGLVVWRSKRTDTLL


Target: T1, human amylin receptor
Test: SPA competition binding, displacement of 125I-rat amylin from membranes with human amylin 3(a) receptor (Assay V)
In short: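 SPA beads with BHK Amylin 3(a)/CRE-luc cell membranes (35 ng/μL final) in 50 mM Hepes pH 7.4, 1 mM CaCl2, 5 mM MgCl₂, 0.1% OA, 0.02% Tween20.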

Binder | IC50 [nM]
K([AEEA-γGlu-C20 diacid])CNTATCATQRLAGFLRHSSPNFGAIPSSTPVGSNTY-NH2 (disulfide 2-7; N-terminus assumed; SMILES CC[C@H](C)[C@H](NC(=O)[C@H](C)NC(=O)CNC(=O)[C@H](Cc1ccccc1)NC(=O)[C@H](CC(N)=O)NC(=O)[C@@H]1CCCN1C(=O)[C@H](CO)NC(=O)[C@H](CO)NC(=O)[C@H](Cc1c[nH]cn1)NC(=O)[C@H](CCCNC(=N)N)NC(=O)[C@H](CC(C)C)NC(=O)[C@H](Cc1ccccc1)NC(=O)CNC(=O)[C@H](C)NC(=O)[C@H](CC(C)C)NC(=O)[C@H](CCCNC(=N)N)NC(=O)[C@H](CCC(N)=O)NC(=O)[C@@H](NC(=O)[C@H](C)NC(=O)[C@@H]1CSSC[C@H](NC(=O)[C@@H](N)CCCCNC(=O)COCCOCCNC(=O)CC[C@H](NC(=O)CCCCCCCCCCCCCCCCCCC(=O)O)C(=O)O)C(=O)N[C@@H](CC(N)=O)C(=O)N[C@@H]([C@@H](C)O)C(=O)N[C@@H](C)C(=O)N[C@@H]([C@@H](C)O)C(=O)N1)[C@@H](C)O)C(=O)N1CCC[C@H]1C(=O)N[C@@H](CO)C(=O)N[C@@H](CO)C(=O)N[C@H](C(=O)N1CCC[C@H]1C(=O)N[C@H](C(=O)NCC(=O)N[C@@H](CO)C(=O)N[C@@H](CC(N)=O)C(=O)N[C@H](C(=O)N[C@@H](Cc1ccc(O)cc1)C(N)=O)[C@@H](C)O)C(C)C)[C@@H](C)O, also called 14G, 17R, 21P, 27P, 31P) | 0.048
K([AEEA-γGlu-C20 diacid])CNTATCATQRLAHFLRHSSPNFGAIPSSTNVGRNTY-NH2 (disulfide 2-7; N-terminus assumed; SMILES CC[C@H](C)[C@H](NC(=O)[C@H](C)NC(=O)CNC(=O)[C@H](Cc1ccccc1)NC(=O)[C@H](CC(N)=O)NC(=O)[C@@H]1CCCN1C(=O)[C@H](CO)NC(=O)[C@H](CO)NC(=O)[C@H](Cc1c[nH]cn1)NC(=O)[C@H](CCCNC(=N)N)NC(=O)[C@H](CC(C)C)NC(=O)[C@H](Cc1ccccc1)NC(=O)[C@H](Cc1c[nH]cn1)NC(=O)[C@H](C)NC(=O)[C@H](CC(C)C)NC(=O)[C@H](CCCNC(=N)N)NC(=O)[C@H](CCC(N)=O)NC(=O)[C@@H](NC(=O)[C@H](C)NC(=O)[C@@H]1CSSC[C@H](NC(=O)[C@@H](N)CCCCNC(=O)COCCOCCNC(=O)CC[C@H](NC(=O)CCCCCCCCCCCCCCCCCCC(=O)O)C(=O)O)C(=O)N[C@@H](CC(N)=O)C(=O)N[C@@H]([C@@H](C)O)C(=O)N[C@@H](C)C(=O)N[C@@H]([C@@H](C)O)C(=O)N1)[C@@H](C)O)C(=O)N1CCC[C@H]1C(=O)N[C@@H](CO)C(=O)N[C@@H](CO)C(=O)N[C@H](C(=O)N[C@@H](CC(N)=O)C(=O)N[C@H](C(=O)NCC(=O)N[C@@H](CCCNC(=N)N)C(=O)N[C@@H](CC(N)=O)C(=O)N[C@H](C(=O)N[C@@H](Cc1ccc(O)cc1)C(N)=O)[C@@H](C)O)C(C)C)[C@@H](C)O, also called 14H, 17R, 21P, 27P, 34R) | 0.743

Second part, the binder after the results:

IC50 [nM] | Binder
0.122 | K([AEEA-γGlu-C20 diacid])CNTATCATQRLAHFLRHSSPNFGAIPSSTPVGSNTY-NH2 (disulfide 2-7; N-terminus assumed; SMILES CC[C@H](C)[C@H](NC(=O)[C@H](C)NC(=O)CNC(=O)[C@H](Cc1ccccc1)NC(=O)[C@H](CC(N)=O)NC(=O)[C@@H]1CCCN1C(=O)[C@H](CO)NC(=O)[C@H](CO)NC(=O)[C@H](Cc1c[nH]cn1)NC(=O)[C@H](CCCNC(=N)N)NC(=O)[C@H](CC(C)C)NC(=O)[C@H](Cc1ccccc1)NC(=O)[C@H](Cc1c[nH]cn1)NC(=O)[C@H](C)NC(=O)[C@H](CC(C)C)NC(=O)[C@H](CCCNC(=N)N)NC(=O)[C@H](CCC(N)=O)NC(=O)[C@@H](NC(=O)[C@H](C)NC(=O)[C@@H]1CSSC[C@H](NC(=O)[C@@H](N)CCCCNC(=O)COCCOCCNC(=O)CC[C@H](NC(=O)CCCCCCCCCCCCCCCCCCC(=O)O)C(=O)O)C(=O)N[C@@H](CC(N)=O)C(=O)N[C@@H]([C@@H](C)O)C(=O)N[C@@H](C)C(=O)N[C@@H]([C@@H](C)O)C(=O)N1)[C@@H](C)O)C(=O)N1CCC[C@H]1C(=O)N[C@@H](CO)C(=O)N[C@@H](CO)C(=O)N[C@H](C(=O)N1CCC[C@H]1C(=O)N[C@H](C(=O)NCC(=O)N[C@@H](CO)C(=O)N[C@@H](CC(N)=O)C(=O)N[C@H](C(=O)N[C@@H](Cc1ccc(O)cc1)C(N)=O)[C@@H](C)O)C(C)C)[C@@H](C)O, also called 14H, 17R, 21P, 27P, 31P)
0.088 | K([AEEA-γGlu-C20 diacid])CNTATCATQRLAHFLRHSSPNFGAIPSSTNVGPNTY-NH2 (disulfide 2-7; N-terminus assumed; SMILES CC[C@H](C)[C@H](NC(=O)[C@H](C)NC(=O)CNC(=O)[C@H](Cc1ccccc1)NC(=O)[C@H](CC(N)=O)NC(=O)[C@@H]1CCCN1C(=O)[C@H](CO)NC(=O)[C@H](CO)NC(=O)[C@H](Cc1c[nH]cn1)NC(=O)[C@H](CCCNC(=N)N)NC(=O)[C@H](CC(C)C)NC(=O)[C@H](Cc1ccccc1)NC(=O)[C@H](Cc1c[nH]cn1)NC(=O)[C@H](C)NC(=O)[C@H](CC(C)C)NC(=O)[C@H](CCCNC(=N)N)NC(=O)[C@H](CCC(N)=O)NC(=O)[C@@H](NC(=O)[C@H](C)NC(=O)[C@@H]1CSSC[C@H](NC(=O)[C@@H](N)CCCCNC(=O)COCCOCCNC(=O)CC[C@H](NC(=O)CCCCCCCCCCCCCCCCCCC(=O)O)C(=O)O)C(=O)N[C@@H](CC(N)=O)C(=O)N[C@@H]([C@@H](C)O)C(=O)N[C@@H](C)C(=O)N[C@@H]([C@@H](C)O)C(=O)N1)[C@@H](C)O)C(=O)N1CCC[C@H]1C(=O)N[C@@H](CO)C(=O)N[C@@H](CO)C(=O)N[C@H](C(=O)N[C@@H](CC(N)=O)C(=O)N[C@H](C(=O)NCC(=O)N1CCC[C@H]1C(=O)N[C@@H](CC(N)=O)C(=O)N[C@H](C(=O)N[C@@H](Cc1ccc(O)cc1)C(N)=O)[C@@H](C)O)C(C)C)[C@@H](C)O, also called 14H, 17R, 21P, 27P, 34P)
0.133 | K([AEEA-γGlu-C20 diacid])CNTATCATQRLAHFLRHSSPNFGAIPSSTNVGSNTY-NH2 (disulfide 2-7; N-terminus assumed; SMILES CC[C@H](C)[C@H](NC(=O)[C@H](C)NC(=O)CNC(=O)[C@H](Cc1ccccc1)NC(=O)[C@H](CC(N)=O)NC(=O)[C@@H]1CCCN1C(=O)[C@H](CO)NC(=O)[C@H](CO)NC(=O)[C@H](Cc1c[nH]cn1)NC(=O)[C@H](CCCNC(=N)N)NC(=O)[C@H](CC(C)C)NC(=O)[C@H](Cc1ccccc1)NC(=O)[C@H](Cc1c[nH]cn1)NC(=O)[C@H](C)NC(=O)[C@H](CC(C)C)NC(=O)[C@H](CCCNC(=N)N)NC(=O)[C@H](CCC(N)=O)NC(=O)[C@@H](NC(=O)[C@H](C)NC(=O)[C@@H]1CSSC[C@H](NC(=O)[C@@H](N)CCCCNC(=O)COCCOCCNC(=O)CC[C@H](NC(=O)CCCCCCCCCCCCCCCCCCC(=O)O)C(=O)O)C(=O)N[C@@H](CC(N)=O)C(=O)N[C@@H]([C@@H](C)O)C(=O)N[C@@H](C)C(=O)N[C@@H]([C@@H](C)O)C(=O)N1)[C@@H](C)O)C(=O)N1CCC[C@H]1C(=O)N[C@@H](CO)C(=O)N[C@@H](CO)C(=O)N[C@H](C(=O)N[C@@H](CC(N)=O)C(=O)N[C@H](C(=O)NCC(=O)N[C@@H](CO)C(=O)N[C@@H](CC(N)=O)C(=O)N[C@H](C(=O)N[C@@H](Cc1ccc(O)cc1)C(N)=O)[C@@H](C)O)C(C)C)[C@@H](C)O, also called 14H, 17R, 21P, 27P)
0.29 | K([AEEA-γGlu-C20 diacid])CNTATCATQRLAHFLRHSSPNFGAIPSSTNVGHNTY-NH2 (disulfide 2-7; N-terminus assumed; SMILES CC[C@H](C)[C@H](NC(=O)[C@H](C)NC(=O)CNC(=O)[C@H](Cc1ccccc1)NC(=O)[C@H](CC(N)=O)NC(=O)[C@@H]1CCCN1C(=O)[C@H](CO)NC(=O)[C@H](CO)NC(=O)[C@H](Cc1c[nH]cn1)NC(=O)[C@H](CCCNC(=N)N)NC(=O)[C@H](CC(C)C)NC(=O)[C@H](Cc1ccccc1)NC(=O)[C@H](Cc1c[nH]cn1)NC(=O)[C@H](C)NC(=O)[C@H](CC(C)C)NC(=O)[C@H](CCCNC(=N)N)NC(=O)[C@H](CCC(N)=O)NC(=O)[C@@H](NC(=O)[C@H](C)NC(=O)[C@@H]1CSSC[C@H](NC(=O)[C@@H](N)CCCCNC(=O)COCCOCCNC(=O)CC[C@H](NC(=O)CCCCCCCCCCCCCCCCCCC(=O)O)C(=O)O)C(=O)N[C@@H](CC(N)=O)C(=O)N[C@@H]([C@@H](C)O)C(=O)N[C@@H](C)C(=O)N[C@@H]([C@@H](C)O)C(=O)N1)[C@@H](C)O)C(=O)N1CCC[C@H]1C(=O)N[C@@H](CO)C(=O)N[C@@H](CO)C(=O)N[C@H](C(=O)N[C@@H](CC(N)=O)C(=O)N[C@H](C(=O)NCC(=O)N[C@@H](Cc1c[nH]cn1)C(=O)N[C@@H](CC(N)=O)C(=O)N[C@H](C(=O)N[C@@H](Cc1ccc(O)cc1)C(N)=O)[C@@H](C)O)C(C)C)[C@@H](C)O, also called 14H, 17R, 21P, 27P, 34H)
